Reference: patent US6670189B2, “Fumonisin detoxification compositions and methods” (priority 1994, dated 2003)

B1: Fumonisin esterase (protein)
chain: APTVKIDAGMVVGTTTTVPGTTATVSEFLGVPFAASPTRFAPPTRPVPWSTPLQATAYGPACPQQFNYPEELREITMAWFNTPPPSAGESEDCLNLNIYVPGTENTNKAVMVWIYGGALEYGWNSFHLYDGASFAANQDVIVVTINYRTNILGFPAAPQLPITQRNLGFLDQRFALDWVQRNIAAFGGDPRKVTIFGQSAGGRSVDVLLTSMPHNPPFRAAIMESGVANYNFPKGDLSEPWNTTVQALNCTTSIDILSCMRRVDLATLMNTIEQLGLGFEYTLDNVTVVYRSETARTTGDIARVPVLVGTVANDGLLFVLGENDTQAYLEEAIPNQPDLYQTLLGAYPIGSPGIGSPQDQIAAIETEVRFQCPSAIVAQDSRNRGIPSWRYYYNATFENLELFPGSEVYHSSEVGMVFGTYPVASATALEAQTSKYMQGAWAAFAKNPMNGPGWKQVPNVAALGSPGKAIQVDVSPATIDQRCALYTHYYTELGTIAPRTF
B2: Protease K: protease used to treat the culture filtrate (protein, UniProt P06873 106-384, looked up)
Proteinase K: AAQTNAPWGLARISSTSPGTSTYYYDESAGQGSCVYVIDTGIEASHPEFEGRAQMVKTYYYSSRDGNGHGTHCAGTVGSRTYGVAKKTQLFGVKVLDDNGSGQYSTIIAGMDFVASDKNNRNCPKGVVASLSLGGGYSSSVNSAAARLQSSGVMVAVAAGNNNADARNYSPASEPSVCTVGASDRYDRRSSFSNYGSVLDIFGPGTSILSTWIGGSTRSISGTSMATPHVAGLAAYLMTLGKTTAASACRYIADTANKGDLSNIPFGTVNLLAYNNYQA

Key:
[1] = Hydrolysis of fumonisin B1 by commercial esterases and hydrolases; assay type: biochemical; set-up: key: − = no hydrolysis; ± = trace amount of hydrolysis; + = incomplete hydrolysis; ++ = incomplete hydrolysis; +++ = complete hydrolysis; settings: assay pH 5.2; overnight at 37° C. with 1 mg/ml fumonisin
Procedure: (§1) Analytical thin-layer chromatography was carried out on 100% silanized C18 silica plates (Sigma #T-7020; 10×10 cm; 0.1 mm thick) by a modification of the published method of Rottinghaus (Rottinghaus, G. E., Coatney, C. E., and Minor, H. C., A rapid, sensitive thin layer chromatography procedure for the detection of fumonisin b-1 and b-2, J Vet Diagn Invest, 4, 326 (1992), and herein incorporated by reference).
(§2) Sample lanes were pre-wet with methanol to facilitate sample application. After application of from 0.1 to 2 μl of aqueous sample, the plates were air-dried and developed in MeOH:4% KCl (3:2) or MeOH:0.2 M KOH (3:2) and then sprayed successively with 0.1 M sodium borate (pH 9.5) and fluorescamine (0.4 mg/ml in acetonitrile). Plates were air-dried and viewed under long wave UV.
The fumonisin esterase isolated from E. spinifera and R. atrovirens was compared with other known esterases from various sources as supplied by commercial vendors.

FB1 Hydrolase activity = assay: Effect of various treatments on modification of FB1 by E. spinifera esterase (culture filtrates); assay type: biochemical, Exophiala spinifera; set-up: key: − = no hydrolysis; ± = trace amount of hydrolysis; + = incomplete hydrolysis; ++ = incomplete hydrolysis; +++ = complete hydrolysis; settings: treatment 0.01 mg/ml, 16 hr, 37° C., pH 5.2; then incubated with FB1 overnight at 37° C.
Procedure: as §1, §2
The esterase isolated from E. spinifera was then subjected to other treatments, including proteases, to determine whether and how the enzyme would function in various environments.

| Molecule | FB1 hydrolysis [1] | FB1 Hydrolase activity (FB1 Hydrolase activity) |
| --- | --- | --- |
| B1 | +++ |  |
| B2 |  | + |
